Results: patent US20200079833A1 (AstraZeneca / MedImmune, published 2020)
Starred links: 1 amine or outer side, 2 acyl side, 3 side chain; linkers in the order of their positions; H or OH if unused. Non-standard residues stand in square brackets, D forms with d. Groups on a side chain read outwards from the residue. Primed or numbered codes have the meaning given here. No end group written: not given here. *: point of attachment. γGlu = O=C(O)[C@H](CCC(=O)[*:2])N[*:1]; Stearoyl = CCCCCCCCCCCCCCCCCC(=O)*; αMeF = C[C@](N)(Cc1ccccc1)C(=O)O; αMeK = C[C@](N)(CCCCN)C(=O)O; Lauroyl = CCCCCCCCCCCC(=O)*; αMeS = C[C@](N)(CO)C(=O)O; PEG2′ = not defined here; Aib = CC(C)(N)C(=O)O

Columns and labels:
Experiment in all cases: cell-based or functional assay
glucagon receptor (GCGR) = glucagon receptor (GCGR) (human, UniProt P47871 26-477)
glucagon receptor (GCGR), sequence (P47871 26-477): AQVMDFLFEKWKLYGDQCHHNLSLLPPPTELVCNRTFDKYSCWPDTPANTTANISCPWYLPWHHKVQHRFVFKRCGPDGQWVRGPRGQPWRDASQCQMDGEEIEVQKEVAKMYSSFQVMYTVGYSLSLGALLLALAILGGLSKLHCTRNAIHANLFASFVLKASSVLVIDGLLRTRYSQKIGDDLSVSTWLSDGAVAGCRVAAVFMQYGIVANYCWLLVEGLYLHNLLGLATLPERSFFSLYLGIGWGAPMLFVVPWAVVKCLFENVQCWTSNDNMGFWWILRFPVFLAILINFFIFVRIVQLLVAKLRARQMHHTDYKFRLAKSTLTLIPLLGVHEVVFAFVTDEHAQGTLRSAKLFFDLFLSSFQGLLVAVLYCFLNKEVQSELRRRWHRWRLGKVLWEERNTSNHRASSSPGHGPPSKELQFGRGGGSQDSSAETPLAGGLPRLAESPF

GLP-1 receptor (GLP-1R) = GLP-1 receptor (GLP-1R) (human, UniProt P43220 24-463)
[1] = target: T1, glucose-dependent insulinotropic peptide (gastric inhibitory polypeptide) receptor (GIPR) (human, UniProt P48546 22-466)
T1 sequence (looked up): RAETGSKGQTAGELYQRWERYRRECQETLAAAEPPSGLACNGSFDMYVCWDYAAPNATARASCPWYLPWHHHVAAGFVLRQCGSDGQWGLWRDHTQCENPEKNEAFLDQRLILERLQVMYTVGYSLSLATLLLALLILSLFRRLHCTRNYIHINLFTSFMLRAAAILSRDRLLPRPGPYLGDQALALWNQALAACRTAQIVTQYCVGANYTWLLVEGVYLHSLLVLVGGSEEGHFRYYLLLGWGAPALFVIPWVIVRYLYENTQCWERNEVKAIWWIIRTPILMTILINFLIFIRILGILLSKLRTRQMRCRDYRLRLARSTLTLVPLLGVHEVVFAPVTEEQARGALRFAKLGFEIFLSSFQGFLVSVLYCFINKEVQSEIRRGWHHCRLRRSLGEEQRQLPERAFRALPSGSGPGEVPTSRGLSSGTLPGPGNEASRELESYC

Binder | cAMP Primary assay EC50 Gluc-R (glucagon receptor (GCGR)) [nM] | cAMP Primary assay EC50 Gluc-R (2nd) (glucagon receptor (GCGR)) [nM] | cAMP Mean pM GLP-1R (GLP-1 receptor (GLP-1R)) [pM] | cAMP Primary assay EC50 GLP-1R n1 (GLP-1 receptor (GLP-1R)) [nM] | cAMP Primary assay EC50 GLP-1R n2 (GLP-1 receptor (GLP-1R)) [nM] | cAMP Primary assay EC50 GIP-R [1] [nM] | cAMP Primary assay EC50 GIP-R (2nd) [1] [nM]
H[Aib]EGSK([PEG2′-PEG2′-γGlu-Stearoyl])TSDV[αMeS]S[αMeF]LEGEAA[αMeK]E[αMeF]IA[αMeF]VV[αMeK]GG-NH2 [SEQ ID NO 123] | 26 | 25.6 | 4660 | 4.9 | 4.43 | 26 | 25.6
H[Aib]EK([PEG2′-PEG2′-γGlu-Stearoyl])S[αMeF]TSDV[αMeS]S[αMeF]LEGEAA[αMeK]E[αMeF]IA[αMeF]VV[αMeK]GG-NH2 [SEQ ID NO 125] | 25 | 24.9 | 24900 | 25 | 24.9 | 25 | 24.9
H[Aib]EGS[αMeF]TK([PEG2′-PEG2′-γGlu-Stearoyl])DV[αMeS]S[αMeF]LEGEAA[αMeK]E[αMeF]IA[αMeF]VV[αMeK]GG-NH2 [SEQ ID NO 121] | 25 | 25.1 | 25100 | 25 | 25.1 | 25 | 25.1
HK([PEG2′-PEG2′-γGlu-Stearoyl])EGS[αMeF]TSDV[αMeS]S[αMeF]LEGEAA[αMeK]E[αMeF]IA[αMeF]VV[αMeK]GG-NH2 [SEQ ID NO 127] | 25 | 25.1 | 25100 | 25 | 25.1 | 25 | 25.1
H[Aib]EGS[αMeF]TSDVK([PEG2′-PEG2′-γGlu-Stearoyl])S[αMeF]LEGEAA[αMeK]E[αMeF]IA[αMeF]VV[αMeK]GG-NH2 [SEQ ID NO 118] | 25 | 25.2 | 783 | 0.81 | 0.758 | 25 | 25.2
H[Aib]EGS[αMeF]TSDV[αMeS]S[αMeF]K([PEG2′-PEG2′-γGlu-Stearoyl])EGEAA[αMeK]E[αMeF]IA[αMeF]VV[αMeK]GG-NH2 [SEQ ID NO 115] | 25 | 25.3 | 6 | 0.006 | 0.00539 | 25 | 25.3
H[Aib]K([PEG2′-PEG2′-γGlu-Stearoyl])GS[αMeF]TSDV[αMeS]S[αMeF]LEGEAA[αMeK]E[αMeF]IA[αMeF]VV[αMeK]GG-NH2 [SEQ ID NO 126] | 25 | 25.4 | 25400 | 25 | 25.4 | 25 | 25.4
H[Aib]EGS[αMeF]TSDV[αMeS]K([PEG2′-PEG2′-γGlu-Stearoyl])[αMeF]LEGEAA[αMeK]E[αMeF]IA[αMeF]VV[αMeK]GG-NH2 [SEQ ID NO 117] | 25 | 25.1 | 25 | 0.026 | 0.0244 | 25 | 25.1
H[Aib]EGK([PEG2′-PEG2′-γGlu-Stearoyl])[αMeF]TSDV[αMeS]S[αMeF]LEGEAA[αMeK]E[αMeF]IA[αMeF]VV[αMeK]GG-NH2 [SEQ ID NO 124] | 25 | 25.1 | 25100 | 25 | 25.1 | 25 | 25.1
H[Aib]EGS[αMeF]TSK([PEG2′-PEG2′-γGlu-Stearoyl])V[αMeS]S[αMeF]LEGEAA[αMeK]E[αMeF]IA[αMeF]VV[αMeK]GG-NH2 [SEQ ID NO 120] | 25 | 25.3 | 3640 | 4.1 | 3.13 | 25 | 25.3
H[Aib]EGS[αMeF]TSDV[αMeS]S[αMeF]LEGEAAK([γGlu-γGlu-Lauroyl])E[αMeF]IA[αMeF]VV[αMeK]GG-NH2 (N-terminus assumed; SMILES CCCCCCCCCCCC(=O)N[C@@H](CCC(=O)N[C@@H](CCC(=O)NCCCC[C@H](NC(=O)[C@H](C)NC(=O)[C@H](C)NC(=O)[C@H](CCC(=O)O)NC(=O)CNC(=O)[C@H](CCC(=O)O)NC(=O)[C@H](CC(C)C)NC(=O)[C@](C)(Cc1ccccc1)NC(=O)[C@H](CO)NC(=O)[C@](C)(CO)NC(=O)[C@@H](NC(=O)[C@H](CC(=O)O)NC(=O)[C@H](CO)NC(=O)[C@@H](NC(=O)[C@](C)(Cc1ccccc1)NC(=O)[C@H](CO)NC(=O)CNC(=O)[C@H](CCC(=O)O)NC(=O)C(C)(C)NC(=O)[C@@H](N)Cc1c[nH]cn1)[C@@H](C)O)C(C)C)C(=O)N[C@@H](CCC(=O)O)C(=O)N[C@@](C)(Cc1ccccc1)C(=O)N[C@H](C(=O)N[C@@H](C)C(=O)N[C@@](C)(Cc1ccccc1)C(=O)N[C@H](C(=O)N[C@H](C(=O)N[C@@](C)(CCCCN)C(=O)NCC(=O)NCC(N)=O)C(C)C)C(C)C)[C@@H](C)CC)C(=O)O)C(=O)O) [SEQ ID NO 129] | 27 | 27 | 11.5 | 0.012 | 0.011 | 27 | 27
H[Aib]EGS[αMeF]K([PEG2′-PEG2′-γGlu-Stearoyl])SDV[αMeS]S[αMeF]LEGEAA[αMeK]E[αMeF]IA[αMeF]VV[αMeK]GG-NH2 [SEQ ID NO 122] | 25 | 25.2 | 25200 | 25 | 25.2 | 25 | 25.2
H[Aib]EGS[αMeF]TSDK([PEG2′-PEG2′-γGlu-Stearoyl])[αMeS]S[αMeF]LEGEAA[αMeK]E[αMeF]IA[αMeF]VV[αMeK]GG-NH2 [SEQ ID NO 119] | 25 | 25.2 | 17 | 0.018 | 0.0157 | 25 | 25.2
H[Aib]EGS[αMeF]TSDV[αMeS]S[αMeF]LEGEAAK([γGlu-Lauroyl])E[αMeF]IA[αMeF]VV[αMeK]GG-NH2 (N-terminus assumed; SMILES CCCCCCCCCCCC(=O)N[C@@H](CCC(=O)NCCCC[C@H](NC(=O)[C@H](C)NC(=O)[C@H](C)NC(=O)[C@H](CCC(=O)O)NC(=O)CNC(=O)[C@H](CCC(=O)O)NC(=O)[C@H](CC(C)C)NC(=O)[C@](C)(Cc1ccccc1)NC(=O)[C@H](CO)NC(=O)[C@](C)(CO)NC(=O)[C@@H](NC(=O)[C@H](CC(=O)O)NC(=O)[C@H](CO)NC(=O)[C@@H](NC(=O)[C@](C)(Cc1ccccc1)NC(=O)[C@H](CO)NC(=O)CNC(=O)[C@H](CCC(=O)O)NC(=O)C(C)(C)NC(=O)[C@@H](N)Cc1c[nH]cn1)[C@@H](C)O)C(C)C)C(=O)N[C@@H](CCC(=O)O)C(=O)N[C@@](C)(Cc1ccccc1)C(=O)N[C@H](C(=O)N[C@@H](C)C(=O)N[C@@](C)(Cc1ccccc1)C(=O)N[C@H](C(=O)N[C@H](C(=O)N[C@@](C)(CCCCN)C(=O)NCC(=O)NCC(N)=O)C(C)C)C(C)C)[C@@H](C)CC)C(=O)O) [SEQ ID NO 128] | 28 | 28 | 18.2 | 0.015 | 0.021 | 28 | 28
H[Aib]EGS[αMeF]TSDV[αMeS]SK([PEG2′-PEG2′-γGlu-Stearoyl])LEGEAA[αMeK]E[αMeF]IA[αMeF]VV[αMeK]GG-NH2 [SEQ ID NO 116] | 26 | 25.6 | 9 | 0.0093 | 0.00912 | 26 | 25.6
